Test results from patent US20080305097A1, “Use of Protease or a Protease Inhibitor for the Manufacture of Medicaments” (YEDA RESEARCH AND DEVELOPMENT CO., LTD., priority 2004, published 2008).

Tests used:
SDF-1 [1] = assay: SDF-1 cleavage by CTK, SDS-PAGE and blot with anti SDF-1 polyclonal Ab or K15C; assay type: biochemical; settings: SDF-1 20 ng, CTK 1.76 ug/ml
Experimental: SDF-1 (20 ng) was incubated with CTK (1.76 ug/ml) for 0, 15, 30, and 60 minutes at 37OC. Samples were subjected than to SDS-PAGE, blotted and detected with anti SDF-1 polyclonal Ab or with the monoclonal Ab K15C, which specifically binds the amino terminal part of the chemokine.
We further explored the kinetics of SDF-1 cleavage by CTK at a time scale of minutes (FIG. 14). Samples of SDF-1 (20 ng) were incubated with CTK (1.76 ug/ml) for 0, 15, 30, 60, 120 and 240 minutes at 37° C. After collection, the samples were subjected to SDS-PAGE and blotted and detected with anti SDF-1 polyclonal Ab (R&D) or with the monoclonal Ab K15C which specifically binds the amino terminal part of the chemokine.

SDF-1 [2] = assay: Migration of Pre B ALL G2 cells towards CTK treated SDF-1; assay type: cell-based; settings: SDF-1 125 ng, CTK 1 mcg/ml, about 16 hours, 37° C.
Experimental: We employed an in-vitro functional assay for SDF-1 (Example 10) to check the effect of CTK on SDF-1 activity. The assay consisted on migration of leukemic Pre B ALL G2 (cells which migrate very well to relative low concentrations of SDF-1, Spiegel, Blood, 2004) to SDF-1.
In brief, SDF-1 (125 ng) was incubated with CTK ([…]) in a 100 ul reaction volume adjusted with PBS, for about 16 hours in 37° C. In some samples, protease inhibitor (PI, 1 ul, Sigma, containing the cystein protease inhibitor E-64) was preincubated with CTK for 1.5 hrs, in 37° C., before SDF-1 was added. The leukemic Pre B ALL G2 cells were loaded on transwells and migration towards CTK treated as well as non treated SDF-1 was measured.
125 ng/ml SDF-1α was kept untreated or incubated with CTK (1 mcg/ml) for overnight in 37° C. To inhibit enzymatic activity of CTK, 1 and 2 mcl of protease inhibitor (Sigma) was incubated with CTK for 1.5 h before adding to SDF-1. RPMI (600 μl) supplemented with 10% FCS was added with tested SDF-1 to the lower chamber of a Costar 24-wells transwell (Corning (pore size 5 μm), NY). 1×10^5 pre B ALL G2 cells in 100 μl medium were loaded to the upper chamber and were allowed to migrate for 4 hours at 37° C. Migrating cells were collected from the lower chamber and counted for 60 seconds using a FACSCalibur. Control spontaneous migration was performed without SDF-1α in the lower chamber.

[3] = test system: TRAP+ multinucleated osteoclasts; assay: Osteoblast/BM co-culture, TRAP+ multinucleated osteoclast count; assay type: cell-based, mouse; settings: G-CSF 50 ng/ml, HGF 50 ng/ml, SDF-1 10 and 100 ng/ml; 5 days
Experimental: Osteoclast precursors are stimulated by cell-cell contact with osteoblasts to become activated multinucleated TRAP+ bone resorbing cells. To obtain active osteoclasts in vitro, a clvarian osteoblasts are incubated with Vitamine D3 and PG2E which potentiate their M-CSF production and RANKL expression, needed for osteoclast activation. BM cells which contain osteoclast precursors are seeded then on the osteoblast monolayer, for 5 days, to obtain active multinucleated osteoclasts.
A co-culture of primary mouse osteoblasts and BM (containing ocl precursors as detailed above) was seeded in the presence of G-CSF (50 ng/ml), HGF (50 ng/ml), or SDF-1 (10 and 100 ng/ml). Five days later, TRAP+ multinucleated osteoclasts in the cultures were stained (as described in Example 1) and counted 5 days later.

SDF-1 [4] = assay: SDF-1 transcription (RT-PCR) and secretion (ELISA) in primary calvaria osteoblasts; assay type: cell-based, mouse; settings: 50 ng/ml, 3 days
Experimental: Osteoblast were incubated with G-CSF, HGF or remained untreated, and SDF-1 transcription and expression was determined in such cells (FIG. 9).
Primary calvaria osteoblasts were cultured for 3 days in the presence of SDF-1 (PeproTech, 100 […]), HGF (PeproTech, 50 ng/ml) and G-CSF (Filgrastin, Roche, 50 ng/ml). Conditioned media was collected to determine SDF-1 concentration by ELISA, as described in Example 2. Determination of SDF-1 transcription and expression as in Example 2.

CTK = CTK expression in BM after RANKL, RT-PCR; assay type: in vivo, Balb/c mice; settings: RANKL 2 daily subcutaneous injections of 5 mcg for 3 days
Experimental: (§1) Balb/c mice were injected with soluble murine RANKL (2 injections per day, 5 mcg per subcutaneous injection). Bones of treated mice were stained for TRAP (in red) indicating mature activated osteoclasts (A). Levels of MMP-9 in BM fluids were determined by zymography assay (B). The expression of CTK mRNA was detected by RT-PCR (C).
(§2) Mice were administrated with RANKL as follows: 2 daily subcutaneous injections of 5 mcg for 3 days and after two more days in the absence of RANKL. The following parameters were monitored in both treated and control untreated mice: TRAP+ activated osteoclasts (FIG. 11A), induction of osteoclast proteases MMP-9 (FIG. 11B) and CTK (FIG. 11C) in the BM and mobilization (FIG. 12).

progenitors = assay: Progenitor mobilization by RANKL, semisolid cultures; assay type: in vivo, Balb/c mice; settings: RANKL 2 daily subcutaneous injections of 5 mcg for 3 days
Experimental: (A) Progenitor mobilization assayed in semisolid cultures, induced by SDF-1 (10 mcg), HGF (1.5 mcg) injected for 5 days and sRANKL (2×5 mcg) injected for the first 3 days. (B) RANKL induced mobilization is inhibited by administration of anti CXCR4 antibodies (10 mcg) and MMP2/9 inhibitor (100 mcg), injected for the last 2 days. (C) Osteoclast precursors in the BM of treated mice were assayed by culturing BM cells for 4 days with M-CSF and sRANKL, followed by TRAP staining to detect mature active osteoclasts.
as §2

MMP-9 = MMP-9 in BM after RANKL, zymography; assay type: in vivo, Balb/c mice; settings: RANKL 2 daily subcutaneous injections of 5 mcg for 3 days
Experimental: as §1, §2

TRAP+ active osteoclasts = assay: In vivo osteoclast activation by RANKL, TRAP staining; parameters: species or system Balb/c mice; settings: RANKL 2 daily subcutaneous injections of 5 mcg for 3 days
Experimental: as §1, §2

B1: CTK: cathepsin K, lysosomal cysteine protease, the major osteoclast bone resorbing enzyme (protein, UniProt P43235 115-329, looked up)
Cathepsin K: APDSVDYRKKGYVTPVKNQGQCGSCWAFSSVGALEGQLKKKTGKLLNLSPQNLVDCVSENDGCGGGYMTNAFQYVQKNRGIDSEDAYPYVGQEESCMYNPTGKAAKCRGYREIPEGNEKALKRAVARVGPVSVAIDASLTSFQFYSKGVYYDESCNSDNLNHAVLAVGYGIQKGNKHWIIKNSWGENWGNKGYILMARNKNNACGIANLASFPKM
kinetics of SDF-1 cleavage by CTK (SDF-1 [1]; 0-240 minutes, 37° C.): fast and site specific SDF-1 cleavage | site of SDF-1 cleavage by CTK (SDF-1 [1]; detection with K15C (amino terminal part)): N-terminally cleaved | chemotactic activity of SDF-1 after incubation with CTK (SDF-1 [2]): abolished

B2: G-CSF: granulocyte colony-stimulating factor (Filgrastin, Roche) (protein, UniProt P09919 31-207, looked up)
Granulocyte …: TPLGPASSLPQSFLLKCLEQVRKIQGDGAALQEKLVSECATYKLCHPEELVLLGHSLGIPWAPLSSCPSQALQLAGCLSQLHSGLFLYQGLLQALEGISPELGPTLDTLQLDVADFATTIWQQMEELGMAPALQPTQGAMPAFASAFQRRAGGVLVASHLQSFLEVSYRVLRHLAQP
modifications: filgrastim
level of activated TRAP+ osteoclasts [3]: significantly increased | SDF-1 transcription in osteoblasts (SDF-1 [4]): induce | SDF-1 production in osteoblasts (SDF-1 [4]; conditioned media ELISA): induce

B3: RANKL: Receptor Activator of NK-kappaB Ligand, soluble murine, osteoclast differentiating factor (protein, UniProt O35235 70-316, looked up)
extracellular domain: YFRAQMDPNRISEDSTHCFYRILRLHENADLQDSTLESEDTLPDSCRRMKQAFQGAVQKELQHIVGPQRFSGAPAMMEGSWLDVAQRGKPEAQPFAHLTINAASIPSGSHKVTLSSWYHDRGWAKISNMTLSNGKLRVNQDGFYYLYANICFRHHETSGSVPTDYLQLMVYVVKTSIKIPSSHNLMKGGSTKNWSGNSEFHFYSINVGGFFKLRAGEEISIQVSNPSLLDPDQDATYFGAFKVQDID
modifications: extracellular domain
CTK expression in the bone marrow (CTK): induction | mobilization of progenitors (progenitors): mobilization of progenitors | MMP-9 expression in the bone marrow (MMP-9): induction | formation of TRAP+ active osteoclasts (TRAP+ active osteoclasts): induced formation of TRAP+ active osteoclasts along the endosteum
